Experimental findings from patent publication US9221871 (NEW YORK UNIVERSITY, dated 2015) are described below.

This experiment has as its target T1, His-tagged human Bcl-xL (human, UniProt Q07817 1-212).
T1 construct: Bought protein; also called Hiss-tagged human Bcl-xL; not shown: His tag
In words: fluorescence polarization competition against fl-Bak, Kd by regression analysis. As to the method:
The anisotropy experiments were performed with a DTX 880 Multimode Detector (Beckman) at 4° C., with excitation and emission wavelengths of 485 and 525 nm, respectively.

T1 sequence (Q07817 1-212): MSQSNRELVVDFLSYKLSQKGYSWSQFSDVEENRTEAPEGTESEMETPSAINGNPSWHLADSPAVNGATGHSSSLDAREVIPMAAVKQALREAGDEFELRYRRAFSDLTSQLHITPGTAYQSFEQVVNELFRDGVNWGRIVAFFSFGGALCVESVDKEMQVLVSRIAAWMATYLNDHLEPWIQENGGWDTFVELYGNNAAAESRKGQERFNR

B1: artificial Bak BH3 α-helix 10a (hydrogen bond surrogate, HBS) (peptide)
chain: QVGRQLAIIGDDINR
modifications: not fully specified; N-terminal Gly-72 replaced by a 4-pentenoic acid residue (alkene-bearing glycine mimic); Gly-75 is N-allyl-glycine; the two olefins are joined by ring-closing metathesis (carbon-carbon hydrogen bond surrogate, mixture of cis and trans alkene isomers); C-terminal amide
The molecule B1 gave a Kd of 325 nM.

Usually Kd stands for the concentration at which binding is half-saturated. The low end stands for a tighter complex, the high end for a looser complex.
